Source: patent publication US7442773B2, “Universal peptide-binding scaffolds and protein chips” (The Board of Trustees of The University of Illinois, priority 2004, dated 2008)

Biological target: biotinylated HA306-318 peptide
Type: binding, influenza virus
Conditions: 20 hours at 37° C., flow cytometry, estimated, read-out: apparent dissociation constant KD of the biotinylated HA306-318 peptide complex

B1: DWP-7: evolved single-chain HLA-DR1 variant (α-linker-β) from library lib-αβ, SEQ ID NOs:35 and 36 (protein)
chain: RKEEHVITQAEFYLNPDQSGEFMFDFDGDEIFHVDMAKKETVWRLEEFGRFASFEAQGALANIAVDKANLEIMTKRSNYTPITNVPPEVTVLTNSPVELREPNVLICYIDKFTPPVVNVTWLRNGKPVTTGVSETVFLPREDHLFRKFHYLPFLPSTEDVYDCRVEHWGLDEPLLKHWEFNAPSPLPETTENLGGGGSGGGRSGGGGSGDTRPRFLWQHKFECHFFNGTERVRLLERCIYNQEESVRFDSDVGEYRAVTELGRPAAEYWNSQKDLLEQRRAAADTYCRHNYGVGESFTVRRRVEPKVTVYPSKTQPLQHHNLLVCSVSGFYPGSIEVRWFRNGQEEKAGVVSTGLIQNGDWTFQTLVMLETVPRSGEVYTCQVEHPSVTSPLTVEWRARSESAQSKLESRGPFEGKPIPNPLLGLDSTRTGHHHHHH
modifications: Sequence of mutant DWP-7
  Kd: 5 µM
